B1: DARPin07-GSGSC-DTPA (designed binder)
chain: DLGTQLLRAAESGQLDTVRTLLKAGADVNAKDEYGLTPLYLATAHGHLQIVRVLLQAGADVNAKDAIGFTPLHLAAFIGHLKIAEVLLKAGADVNAQDKFGKTPAQIAATAGNQQIASVLQKAAGSGSC
modifications: maleimide-DTPA coupled to the C-terminal Cys of the GSGSC tag
notes: Charge variant of DARPin06 (negative control for kidney uptake, higher pI); His-TEV tag cleaved off; possible N-terminal GS not included; also called construct 7
B2: DARPin09-GSGSC-DTPA (designed binder)
chain: B1 chain with R8Q, K31Q, R52Q, Q56S, K64Q, K82Q, E85Q, K89S, K102T, K122Q
modifications: maleimide-DTPA coupled to the C-terminal Cys of the GSGSC tag
notes: Charge variant of DARPin06; His-TEV tag cleaved off; possible N-terminal GS not included; also called construct 9
B3: DARPin12-GSGSC-DTPA (designed binder)
chain: DLGIQLLFAAAKGQLDTVRTLLQAGADVNAKDFQGVTPLHIAAQSGHLQIVEVLLQAGADVNAKDVTGDTPLHLAAQHGHLQIVTVLLQAGADVNAQDERGWTPADLAADWGNQQIAEVLQQAAGSGSC
modifications: maleimide-DTPA coupled to the C-terminal Cys of the GSGSC tag
notes: Charge variant of DARPin11; His-TEV tag cleaved off; possible N-terminal GS not included; also called construct 12
B4: DARPin11-GSGSC-DTPA (designed binder)
chain: DLGIKLLFAAAKGQDDEVRELLKAGADVNAKDFQGVTPLHIAAQSGHLEIVEVLLKAGADVNAKDVTGDTPLHLAAQHGHLEIVEVLLKAGADVNAQDERGWTPADLAADWGHEDIAEVLQKAAGSGSC
modifications: maleimide-DTPA coupled to the C-terminal Cys of the GSGSC tag
notes: Parent; His-TEV tag cleaved off; possible N-terminal GS not included; also called construct 11; DTPA coupled parental DARPin11
B5: DARPin08-GSGSC-DTPA (designed binder)
chain: DLGTQLLRAAESGQLDEVRELLKAGADVNAQDEYGLTPLYLATAHGHLEIVTVLLEAGADVNAQDAIGFTPLHLAAFIGHLEIATVLLEAGADVNAQDKFGKTPADIAAGAGNEDIAEVLQKAAGSGSC
modifications: maleimide-DTPA coupled to the C-terminal Cys of the GSGSC tag
notes: Charge variant of DARPin06; His-TEV tag cleaved off; possible N-terminal GS not included; also called construct 8
B6: DARPin10-GSGSC-DTPA (designed binder)
chain: B1 chain with R8Q, T20E, K31Q, K64Q, K82E, E85T, Q106D
modifications: maleimide-DTPA coupled to the C-terminal Cys of the GSGSC tag
notes: Charge variant of DARPin06; His-TEV tag cleaved off; possible N-terminal GS not included; also called construct 10
B7: DARPin16-GSGSC-DTPA (designed binder)
chain: B5 chain with R8E, K102T
modifications: maleimide-DTPA coupled to the C-terminal Cys of the GSGSC tag
notes: Charge variant derived from DARPin06; His-TEV tag cleaved off; possible N-terminal GS not included; also called construct 16
B8: DARPin06-GSGSC-DTPA (designed binder)
chain: DLGKKLLEAARAGQDDEVRELLKAGADVNAKDEYGLTPLYLATAHGHLEIVEVLLKAGADVNAVDAIGFTPLHLAAFIGHLEIAEVLLKAGADVNAQDKFGKTPADIAAGAGNEDIAEVLQKAAGSGSC
modifications: maleimide-DTPA coupled to the C-terminal Cys of the GSGSC tag
notes: Parent; also called construct 6; DTPA coupled parental DARPin06
B9: DARPin15-GSGSC-DTPA (designed binder)
chain: B5 chain with K99N, K102T, K122Q
modifications: maleimide-DTPA coupled to the C-terminal Cys of the GSGSC tag
notes: Charge variant derived from DARPin06; His-TEV tag cleaved off; possible N-terminal GS not included; also called construct 15
B10: DARPin14-GSGSC-DTPA (designed binder)
chain: B5 chain with R8E, K23Q
modifications: maleimide-DTPA coupled to the C-terminal Cys of the GSGSC tag
notes: Charge variant derived from DARPin06; His-TEV tag cleaved off; possible N-terminal GS not included; also called construct 14
B11: DARPin13-GSGSC-DTPA (designed binder)
chain: B5 chain with R8Q, R19H, E20D, K23Q
modifications: maleimide-DTPA coupled to the C-terminal Cys of the GSGSC tag
notes: Charge variant derived from DARPin06; His-TEV tag cleaved off; possible N-terminal GS not included; also called construct 13
B12: parental DARPin06 (designed binder)
chain: DLGKKLLEAARAGQDDEVRELLKAGADVNAKDEYGLTPLYLATAHGHLEIVEVLLKAGADVNAVDAIGFTPLHLAAFIGHLEIAEVLLKAGADVNAQDKFGKTPADIAAGAGNEDIAEVLQKAA

We go through twelve molecules from US20240132546A1 (Molecular Partners, published 2024).

Substitutions are numbered along the chain they refer to.

The target in the first assay is T1, biotinylated full-length HER2 (human, UniProt P04626 23-652, limits assumed, biotinylated (site not stated)).
T1 construct: Immobilised on the SPR chip; also called bio-HER2; Human Epidermal Growth Factor Receptor 2
Nature of the assay: SPR, single trace, 500 nM analyte over biotinylated HER2 on the chip, double-referenced, 1:1 Langmuir fit [continued]. From the text: (§1) FIG. 4: Single-trace SPR profiles of DTPA-coupled DARPins (also referred to as constructs, see Table 7) against biotinylated full-length HER2. As reference, plots 1 and 2 show the profiles of the HER2-binding parental DARPin06 (SEQ ID NO: 6) and DARPin11 (SEQ ID NO: 11), respectively. Plots 3, 4, 5, 6 and 7 show the profiles of construct 6 (DARPin06-GSGSC-DTPA), construct 7 (DARPin07-GSGSC-DTPA), construct 8 (DARPin08-GSGSC-DTPA), construct 9 (DARPin09-GSGSC-DTPA) and construct 10 (DARPin10-GSGSC-DTPA), respectively. Plots 8 and 9 show construct 11 (DARPin11-GSGSC-DTPA) and construct 12 (DARPin12-GSGSC-DTPA), respectively. The GSGSC tag (SEQ ID NO: 14) was fused to the C-terminal end of the DARPins. All analytes (500 nM) were injected in succession for 120s, dissociation was recorded for 180s (25 ul/min of PBS-Tween20 (0.005%)). Each injection was followed by a regeneration step with glycine pH2.0 for 60s. The data was double referenced (control spot and buffer injection) and fitted to a 1:1 Langmuir model.
A surface plasmon resonance (SPR) assay was used to determine if the charge-engineered DARPin variants derived from the parental DARPin06 (SEQ ID NO: 6) and DARPin11 (SEQ ID NO: 11) could still bind to HER2. All SPR data were generated using a Bruker Sierra SPR-32 instrument with PBS-T (0.005% Tween 20) as running buffer. A new Bruker BTC Chip was conditioned according to the manufacturer's protocol. The chip was coated with biotinylated target (bio-HER2) to reach a signal intensity of approximatively 600 RU. All analytes (500 nM) were injected in succession for 120s, dissociation was recorded for 180s (25 ul/min). Each injection was followed by a regeneration step with glycine pH 2.0 for 60s. The data was double referenced (control spot and buffer injection) and fitted to a 1:1 Langmuir model. […] A DTPA coupled DARPin is also referred to as a “construct”. SPR curves are shown in FIG. 4 where plots 1 and 2 show the profiles of the HER2-binding parental DARPin06 and DARPin11 (SEQ ID NOs: 6 and 11, respectively).
A general note: Surface plasmon resonance follows binding to a sensor surface in real time, without labels.
As usually defined, the Kd is the constant that tells how readily two partners part at equilibrium. A lower Kd goes with higher affinity. Regarding B1, the affinity, expressed as Kd, was 0.457 nM.
The same measure, in the same setting: the figure for B2 is 1.44 nM; for B3 it is 0.982 nM; for B4 it is 0.226 nM.
Consider B5, for which the affinity, expressed as Kd, was 0.583 nM.
In turn, B6 registered a Kd of 0.622 nM.

A further assay concerns the target T1, biotinylated full-length HER2. Nature of the assay: SPR multi-trace, biotinylated HER2 on chip, analyte 0.617-50 nM, global 1:1 Langmuir fit. The text has this: (§2) FIGS. 9A-9F: Multi-trace SPR profiles of DTPA-coupled DARPins (also referred to as constructs, see Tables 7 and 16) against biotinylated full-length HER2. FIGS. 9A, 9B, 9C, 9D, 9E, and 9F show the profiles of construct 6 (DARPin06-GSGSC-DTPA), construct 8 (DARPin08-GSGSC-DTPA), construct 13 (DARPin13-GSGSC-DTPA), construct 14 (DARPin14-GSGSC-DTPA), construct 15 (DARPin15-GSGSC-DTPA) and construct 16 (DARPin16-GSGSC-DTPA), respectively. The GSGSC tag (SEQ ID NO: 14) was fused to the C-terminal end of the DARPins. Three-fold dilutions of the analytes (50, 16.667, 5.556, 1.852 and 0.617 nM) were injected for 300s, dissociation was recorded for 1500s (25 ul/min). Each injection was followed by a regeneration step with glycine pH 2.0 for 60s. Dissociation constants (KD) were calculated from the globally fitted on- and off-rates using standard 1:1-Langmuir model (see Table 17).
(§3) Binding kinetics of the constructs to the target protein HER2 was measured in a multi-trace SPR assay. A new Xantec NAHLC200M chip was conditioned according to the manufacturer's protocol. The chip was coated with biotinylated target (bio-HER2, 10 ug/mL) for 900s to reach a signal intensity of approximately 1200-1300 RU. Three-fold dilutions of the analytes (50, 16.667, 5.556, 1.852 and 0.617 nM) were injected for 300s, dissociation was recorded for 1500s (25 ul/min). Each injection was followed by a regeneration step with glycine pH 2.0 for 60s. The signals (i.e. resonance unit (RU) values) of empty surface and a reference injection (i.e. injection of running buffer only) were subtracted from the RU traces obtained injecting the constructs (double-referencing). Dissociation constants (KD) were calculated from the globally fitted on- and off-rates using standard 1:1-Langmuir model.
As a reminder, the koff is a measure of how fast the partners let go of each other. A lower koff goes with slow dissociation. As usually defined, the kon is the second-order rate constant of association. A lower kon goes with slower complex formation. For B5, the affinity, expressed as Kd, was 0.17 nM; the dissociation rate constant (koff) is 8.82e-05 s⁻¹; the on-rate constant (kon) was 521000 M⁻¹ s⁻¹.
B7 registered a Kd of 0.615 nM, a koff of 0.00026 s⁻¹ and a kon of 422000 M⁻¹ s⁻¹.
For B8, in that order: 0.216 nM, 0.000141 s⁻¹ and 653000 M⁻¹ s⁻¹.
Taken in the same sequence, the figures for B9 were 0.637 nM, 0.000214 s⁻¹ and 336000 M⁻¹ s⁻¹.
For B10, in that order: 0.23 nM, 0.000121 s⁻¹ and 524000 M⁻¹ s⁻¹.
Molecule B11 displayed a Kd of 0.357 nM, a koff of 0.000138 s⁻¹ and an on-rate (kon) of 386000 M⁻¹ s⁻¹.

For a further assay the target is unchanged. Described as above. The source holds these as a separate data set.
Excerpt: as §2, §3
Take B5: the dissociation constant (Kd) was below 1 nM.
Regarding B7, the equilibrium dissociation constant (Kd) is below 1 nM.
On the same count and under the same terms, for B9 the value was below 1 nM.
The molecule B10 yielded a Kd below 1 nM.
Same read-out and setting: for B11 the value was below 1 nM.

The target is the same in another assay. Briefly: SPR, single trace, 500 nM analyte over biotinylated HER2 on the chip, double-referenced, 1:1 Langmuir fit.
Excerpt: as §1
A surface plasmon resonance (SPR) assay was used to determine if the charge-engineered DARPin variants derived from the parental DARPin06 (SEQ ID NO: 6) and DARPin11 (SEQ ID NO: 11) could still bind to HER2. […] All analytes (500 nM) were injected in succession for 120s, dissociation was recorded for 180s (25 ul/min). […]
Molecule B12 showed a dissociation constant (Kd) of 0.0575 nM.
The molecule B8 registered an equilibrium dissociation constant (Kd) of 0.284 nM.
